Experimental data reported in article PMC5053618 (2016).

Biological target: T1, soluble EPCR ECD (truncated after Ser210) (Homo sapiens, UniProt Q9UNN8)
T1 chain: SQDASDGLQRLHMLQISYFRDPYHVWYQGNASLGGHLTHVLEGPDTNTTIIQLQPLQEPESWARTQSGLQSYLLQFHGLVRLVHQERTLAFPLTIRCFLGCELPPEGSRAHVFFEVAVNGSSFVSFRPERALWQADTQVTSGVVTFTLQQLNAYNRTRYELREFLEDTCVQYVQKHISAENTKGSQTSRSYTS
Assay: solid-phase plate binding assay

B1: activated protein C (protein)
chain 1: ANSFLEELRHSSLERECIEEICDFEEAKEIFQNVDDTLAFWSKHVDGDQCLVLPLEHPCASLCCGHGTCIDGIGSFSCDCRSGWEGRFCQREVSFLNCSLDNGGCTHYCLEEVGWRRCSCAPGYKLGDDLLQCHPAVKFPCGRPWKRMEKKRSHL
chain 2: LIDGKMTRRGDSPWQVVLLDSKKKLACGAVLIHPSWVLTAAHCMDESKKLLVRLGEYDLRRWEKWELDLDIKEVFVHPNYSKSTTDNDIALLHLAQPATLSQTIVPICLPDSGLAERELNQAGQETLVTGWGYHSSREKEAKRNRTFVLNFIKIPVVPHNECSEVMSNMVSENMLCAGILGDRQDACEGDSGGPMVASFHGTWFLVGLVSWGEGCGLLHNYGVYTKVSRYLDWIHGHIRDKEAPQKSWAP
modifications: APC biotinylated with biotin-FPR-chloromethylketone, Ca2+ and Mg2+
Which Kd does the source give for B1 here?
The Kd was 0.024 µM.
